Measured values published in paper PMC6582412.

Experiments:
[1] = test system: LrAgo (Limnothrix rosea IAM M-220); assay: competition
[2] = test system: LrAgo (Limnothrix rosea IAM M-220); assay: double-filter binding; conditions: 5'-phosphate

Sequence	Kd ([1]; 5'-hydroxyl) [nM]	Kd ([1]; 5'-phosphate) [nM]	Kd [2] [nM]
GTTAGACTTTAAGTCAAT [18 nt 5'-OH guide DNA (G-guide)]	0.0456	–	–
GTTAGACTTTAAGTCAAT [18 nt 5'-P guide DNA (G-guide)]	–	0.0333	0.0348
